Test system: MS2 coat protein
Test: apparent KD of MS2 coat protein; designed switch direction (-1 OFF switch, 1 ON switch): -1; higher = weaker reporter binding
Summary of the method: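 For each design, the apparent KD is the median over clusters of curves fitted to normalised cluster fluorescence. Clusters held RNA switches with common flanks, transcribed on Illumina chips by stalled E. coli RNA polymerase. These were titrated with SNAP-549-labelled MS2 coat protein, doubling from 0.7 or 1.5 nM to 3 µM, without input, with 200 uM small-molecule ligand, or with an oligonucleotide input.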

[1] = input ligand: microRNA oligo, concentration not stated
[2] = Eterna round: R95, input ligand: microRNA oligo, concentration not stated
[3] = Eterna round: R95, input ligand: FMN 200 uM
[4] = Eterna round: R95, input ligand: none

Sequence | apparent KD of MS2 coat protein (input ligand: FMN 200 uM) [µM] | apparent KD of MS2 coat protein (input ligand: none) [µM] | apparent KD of MS2 coat protein [1] [µM] | apparent KD of MS2 coat protein [2] [µM] | apparent KD of MS2 coat protein [3] [µM] | apparent KD of MS2 coat protein [4] [µM]
CCAAGCUUAUUCAUUAACCACAUGAGGAUCACCCAUGUAUAGGCAAUUAUGACUGGGCUCUGUGGUGCUCGUCUUAU [Sensor-V1 #27] (Eterna round: R97, puzzle: Sensor, turn-off variant 1) | 0.146 | 0.143 | – | – | – | –
AUAAAGCAAGCAUGGUCCCACAUGAGGAUCACCCAUGUGUUCGUCUUAUAGGCUGCUGUGGCUUUUGCCUCGUUGGC [LRO Sensor-off var1-09 loose mod of D91 from Mat747] (Eterna round: R97, puzzle: Sensor, turn-off variant 1) | 0.0416 | 0.046 | – | – | – | –
UGUGUGAGACAGGAUAUGCCGGUUGUGUUGCUGGUAGAAGGGUCUACAUGAGGAUCACCCAUGUGGCCGGUUGG [Ex6 #80] (Eterna round: R97, puzzle: Exclusion 6) | 0.0191 | 0.0173 | – | – | – | –
UUGUUGUAUGUAGGAUAUGCAUAUUAUUAUUAUGCAGAAGGACAUGAGGAUCACCCAUGUAUGUUAUUAUUAUGUGUUAUGUGU [Title] (Eterna round: R96, puzzle: Exclusion NG 1) | – | – | 0.0339 | – | – | –
CCGCAUAAGCAGGAUAUCGUAUCGGAAACGAUACGAGAAGGGUUAACAUGAGGAUCACCCAUGUUCCUUAACGG [Fiskers Ex 6 - 30] (puzzle: Exclusion 6) | – | – | – | 0.0175 | – | –
GGUUGACAUGAGGAUCACCCAUGUGAGGAUAUGCGAGAGAAAAAAGUGAGGAAGGUUUGCAGAAGGCGCUGUCG [salish99-ex1_r3_008] (puzzle: Exclusion 1) | – | – | – | 0.115 | 0.0502 | 0.0812
ACGCAUUGCCUUUGGUAGUGCGUAACAUGAGGAUCACCCAUGUAGGAUAUGGUAGGCUUUGCUUACCAGAAGGACAUUAUAAUC [Mat - Exclusion NG 3 - Mod of JL - D8] (Eterna round: R96, puzzle: Exclusion NG 3) | 0.065 | 0.0251 | 0.0185 | – | – | –
CUUCGUAAUGUCAGGAUAUUUUCGAGGGCAACUCAAAAGAAGGGACAUGAGGAUCACCCAUGUGGCAACGUCAU [Eternabot (L2) Solution 83] (Eterna round: R97, puzzle: Brourd's mod of Exclusion 4) | 0.177 | 0.0519 | – | – | – | –
AGCUGUGGCCGAGGAUAUCUGUUCCAAAUAACCGACGUAUAGUCGGACAUGAGGAUCACCCAUGUAGAGAAGGCGGUCUCAGCA [Eli eng2 - 101] (Eterna round: R96, puzzle: Exclusion NG 2) | 0.136 | 0.0639 | 0.038 | – | – | –
AGCUUUUUGCUCGUCUUAUACAUGAGGAUCACCCAUGUAUUGGACCACAUCGAUAGAUGUGGACCAAGAAGCAUGGG [Omdei Mir OFFv1 C1] (Eterna round: R97, puzzle: Sensor, turn-off variant 1) | 0.195 | 0.109 | – | – | – | –
CUCGUGUAAGGAUAUACGAGUCACGGAAAUAAAACGUGAAGGUAGAAGGUACAUGAGGAUCACCCAUGUAAAAC [Mod of Anonveat 2 - Jieux - Exclusion 4] (Eterna round: R97, puzzle: Exclusion 4) | 0.209 | 0.0298 | – | – | – | –
UGUAACCUAGGAUAUACAUGAGGAUCACCCAUGUAAUGUAGUAUAGUGUGUGUAAGGUGUAGAAGGAGGGAUGU [LRO-Excl05-22-Smart Aleck] (Eterna round: R97, puzzle: Exclusion 3) | 0.00976 | 0.0629 | – | – | – | –
AAUUUAAUUAACAAGCUUUACAUGAGGAUCACCCAUGUGAUCAUGCUCGUCUUAUAAUUAAUUAAUUAAUUAAUUAA [Stov1/6-A1] (Eterna round: R97, puzzle: Sensor, turn-off variant 1) | 0.0484 | 0.0592 | – | – | – | –
CCUAGUUGGUAAGGAUAUCCUACACUAUUCUGACCCGUGCAAGCUACAUGAGGAUCACCCAUGUGGGAGAAGGUGCGUCAACGC [Design 11] (Eterna round: R96, puzzle: Exclusion NG 2) | 0.0291 | 0.0329 | 0.0197 | – | – | –
UGAUCUAGCGGAGGAUAUACAUGAGGAUCACCCAUGUAUAGUCUAUGACCGUAGUCGUGGAACGUGUAGAAGGCCGCUAGAUCU [JL ENG2 3.78] (Eterna round: R96, puzzle: Exclusion NG 2) | 0.0184 | 0.0144 | 0.0102 | – | – | –
GUUUUCAGACGGAGAUCCUACAUGAGGAUCACCCAUGUCUCUCUUGUUAAUUGCUCGUCUUUUCCUCCUCUGUUCUC [Elimod 34 - Jieux - Sensor, turn-off variant 1] (Eterna round: R97, puzzle: Sensor, turn-off variant 1) | 0.545 | 0.605 | – | – | – | –
UCUGGUCAAGGAUAUACAAUCGUGCUUCGGCACGUAAGAUCACAUGAGGAUCACCCAUGUAGAAGGUGACCAGA [E2/1-C3] (Eterna round: R97, puzzle: Exclusion 2) | 0.449 | 0.0439 | – | – | – | –

Sequence | apparent KD of MS2 coat protein (input ligand: FMN 200 uM) [µM] | apparent KD of MS2 coat protein (input ligand: none) [µM] | apparent KD of MS2 coat protein [1] [µM] | apparent KD of MS2 coat protein [2] [µM] | apparent KD of MS2 coat protein [3] [µM] | apparent KD of MS2 coat protein [4] [µM]
GUGUAGUCAGGAUAUACAUAGGAAGAGAAGAGAAGAGAAGCACAUGAGGAUCACCCAUGUAGAAGGGACAGUGU [Excluse me!! 4 - Jieux - Exclusion 2] (puzzle: Exclusion 2) | – | – | – | 0.0614 | 0.0857 | 0.061
GCUUGUGCCCUAGGAUAUCGCCCAGCCAAUGGAUGAGAAGGAGGCGGGUGAAACAUGAGGAUCACCCAUGUAAACGCACAGGCG [Erdiusbi] (Eterna round: R96, puzzle: Exclusion NG 1) | 0.189 | 0.0219 | 0.018 | – | – | –
GAUGGCUUAGGAUAUACAUAGAAGAAUUGAACUUGGAUUAUACAUGAGGAUCACCCAUGUAGAAGGAGGUCAUC [ExGluten 4 - Jieux - Exclusion 2] (Eterna round: R97, puzzle: Exclusion 2) | 0.053 | 0.0291 | – | – | – | –
AGAUCCUGAGUCAGGAUAUAGAGGCGAAAGCCUGGCUAGAAGGGACAUGAGGAUCACCCAUGUGGGUUCGUGCC [Geariat] (puzzle: Brourd's mod of Exclusion 4) | – | – | – | 0.0196 | – | –
AUAAUACAUGUAGGAUAUCUGCACGAUUAGUGCAGAGAAGGACAUGAGGAUCACCCAUGUAAUUAAGAUCAAUUAUUAAAUUAU [ENG1/3-D1] (Eterna round: R96, puzzle: Exclusion NG 1) | 0.238 | 0.057 | 0.0639 | – | – | –
CGGAUACAUGAGGAUCACCCAUGUGAGGAUAUCGUACGUUCGUCGAUAGACGAUCGUACGAGAAGGCAUGACCG [Mat - Exclusion 1 - Eli Mod - D34] (Eterna round: R97, puzzle: Exclusion 1) | 0.0713 | 0.2 | – | – | – | –
UUUAAUUGUGACAUGGGUGACAUGAGGAUCACCCAUGUCACAAGCUUUUUGCUCGUCUUAUAAUUAACCCAUGUCAC [Stov1/13-A1] (Eterna round: R97, puzzle: Sensor, turn-off variant 1) | 0.0256 | 0.0277 | – | – | – | –
GUCGUGCGGCUUUGCUGUGCGGGUGCAUGAGGAUCACCCAUGUAGGAUAUGGUACGCUUUGCGUGCCAGAAGGGCGUGCGUUGG [salish99_ExNG3_r04_009] (Eterna round: R96, puzzle: Exclusion NG 3) | 0.154 | 0.111 | 0.114 | – | – | –
UUUGUUGUUGUGAGGAUAUCGUAGUUAUUUUGAAACGAGAAGGCACAUGAGGAUCACCCAUGUUUGUUGAUGGU [JR_BMOE4_Sub062] (puzzle: Brourd's mod of Exclusion 4) | – | – | – | 0.0324 | – | –
CAGGAUAGAGGAUAUACAUAGAUACAGAUUCAUGUGAUCCUACAUGAGGAUCACCCAUGUAGAAGGCUAUCCUG [Fiskers Ex 2 - 21] (Eterna round: R96, puzzle: Exclusion 2) | 0.216 | 0.348 | 0.321 | – | – | –
AAUAACAGAGGAUAUACUGUUUUAUGUGUUUGUUGUUUUGAACAUGAGGAUCACCCAUGUAGAAGGCUGAGUAA [JMF 41] (puzzle: Exclusion 2) | – | – | – | 0.0229 | – | –
UCGGCGCGAGGAUAUGCGGUUGCUUGGUAGGGUCGGAGCGUACAUGAGGAUCACCCAUGUAGAAGGCGCGCCGC [Apr-15 SS2-33] (puzzle: Exclusion 2) | – | – | – | 0.0155 | – | –
AAAAGGUCAGGAUAUCCAAGAAAAGAAAAGAAAAGAAAAGAGGAGAAGGGACAUGAGGAUCACCCAUGUAAAAG [Default title] (puzzle: Exclusion 4) | – | – | – | 0.0427 | 0.039 | 0.038
GAAAAGGUAGGAUAUACGAAAAAAAAGGGUAGAAAAAAAACACAUGAGGAUCACCCAUGUAGAAGGACCAAAAA [salish99_ex2_r3_050] (puzzle: Exclusion 2) | – | – | – | 0.045 | 0.0989 | 0.0342
CCGAGGUAGCGGUCCUAUGACAUGAGGAUCACCCAUGUACCUCGCUACGAGCUUUUUGCUCGUCUUAUAAUUCUCGG [JL Atriat mod 1] (puzzle: Sensor v3, turn-off variant 1) | – | – | – | 0.229 | 0.0552 | 0.0736
UAGAUGGGAGGAUAUACGUAGAUGCAGGUUCGUGUGGUGCUACAUGAGGAUCACCCAUGUAGAAGGCCCGUCUU [JL-ex2-2.29 Mayanne mod] (Eterna round: R96, puzzle: Exclusion 2) | 0.0694 | 0.0184 | 0.0141 | – | – | –

From the supplement of paper PMC9170038
